Data published in US9493781B2, “Synthetic brassica-derived chloroplast transit peptides” (DOW AGROSCIENCES LLC, priority 2012, dated 2016).

How the values were obtained:
Zea mays = assay: Post-emergence glyphosate tolerance of dgt-28 transformed T0 corn; format: in vivo
Protocol: Herbicide Tolerance in dgt-28 Transformed Corn. Zea mays dgt-28 transformation events (T0) were allowed to acclimate in the greenhouse and were grown until plants had transitioned from tissue culture to greenhouse growing conditions (i.e., 2-4 new, normal looking leaves had emerged from the whorl). Plants were grown at 27° C. under 16 hour light: 8 hour dark conditions in the greenhouse. The plants were then treated with commercial formulations of DURANGO DMA™ (containing the herbicide glyphosate) with the addition of 2% w/v ammonium-sulfate. Herbicide applications were made with a track sprayer at a spray volume of 187 L/ha, 50-cm spray height. T0 plants were sprayed with a range of glyphosate from 280-4480 g ae/ha glyphosate, which is capable of significant injury to untransformed corn lines. A lethal dose is defined as the rate that causes >95% injury to the B104 inbred.
Post-Emergence Herbicide Tolerance in dgt-28 Transformed T0 Corn. T0 events of dgt-28 linked with TraP4, TraP5, TraP8 and TraP23 were generated by Agrobacterium transformation and were allowed to acclimate under controlled growth chamber conditions until 2-4 new, normal looking leaves had emerged from the whorl. Plants were assigned individual identification numbers and sampled for copy number analyses of both dgt-28 and aad-1. Based on copy number analyses, plants were selected for protein expression analyses. […]

[1] = test system: chloroplasts of tobacco cells; assay: Tobacco transient assay: confocal microscopy of TraP-YFP localization; format: cell-based, Nicotiana benthamiana; conditions: Agrobacterium-infiltrated tobacco leaves
From the text: The Trap8 and TraP9 chimeric chloroplast transit peptide sequences were initially tested via a transient in planta assay. Polynucleotide sequences which encode the Trap8 (SEQ ID NO:5) and TraP9 (SEQ ID NO:6) chimeric chloroplast transit peptide sequences were synthesized. A linker sequence (SEQ ID NO:7) was incorporated between the TraP sequence and the yfp coding sequence. The resulting constructs contained two plant transcription units (PTU). The first PTU was comprised of the Arabidopsis thaliana Ubiquitin 10 promoter (AtUbi10 promoter; Callis, et al., (1990) J. Biol. Chem., 265: 12486-12493), TraP-yellow fluorescent protein fusion gene (TraP-YFP; US Patent App. 2007/0298412), and Agrobacterium tumefaciens ORF 23 3′ untranslated region (AtuORF23 3′UTR; U.S. Pat. No. 5,428,147). […]
Agrobacterium-infiltrated tobacco leaves were severed from the plant, and placed into a petri-dish with water to prevent dehydration. The infiltrated tobacco leaves were observed under blue light excitation with long-pass filter glasses held in place using a Dark Reader Hand Lamp™ (Clare Chemical Research Co.; Dolores, Colo.) to identify undamaged areas of the leaf that were successfully expressing the YFP reporter proteins. […]

YFP protein = assay: Western blot of infiltrated tobacco leaves (YFP expression, transit peptide processing); set-up: species or system Nicotiana benthamiana; conditions: infiltrated tobacco leaf tissue
Protocol: Samples of the infiltrated tobacco plants were assayed via Western blotting. Leaf punches were collected and subjected to bead-milling. About 100-200 mg of leaf material was mixed with 2 BBs (steel balls) (Daisy; Rogers, Ark.) and […] of PBST for 3 minutes in a Kleco™ bead mill. The samples were then spun down in a centrifuge at 14,000×g at 4° C. The supernatant was removed and either analyzed directly via Western blot or immunoprecipitated. The immunoprecipitations were performed using the Pierce Direct IP Kit™ (Thermo Scientific; Rockford, Ill.) following the manufacturer's protocol. Approximately, 50 μg of anti-YFP was bound to the resin. The samples were incubated with the resin overnight at 4° C. Next, the samples were washed and eluted the following morning and prepped for analysis by combining equal volumes of 2×8M Urea sample buffer and then boiling the samples for 5 minutes. The boiled samples were run on a 4-12% SDS-Bis Tris gel in MOPS buffer for 40 minutes. The gel was then blotted using the Invitrogen iBlot™ (Life Technologies; Carlsbad, Calif.) following the manufacturer's protocol. The blotted membrane was blocked for 10 minutes using 5% non-fat dry milk in PBS-Tween solution. The membrane was probed with the primary antibody (monoclonal anti-GFP in rabbit) used at a 1:1000 dilution in the 5% non-fat dry milk in PBS-Tween solution for 1 hour. […]

[2] = test system: tobacco (cv. Petit Havana); assay: Postemergence glyphosate tolerance of dgt-28 transformed T1 and T2 tobacco; format: in vivo; conditions: 14 DAT, 2240 g ae/ha glyphosate (DURANGO DMA)
From the text: Postemergence herbicide tolerance in dgt-28 transformed T1 tobacco. T1 resistant plants from each event used in the progeny testing were given unique identifiers and sampled for zygosity analyses of the dgt-28 gene. Zygosity data were used to assign 2 hemizygous and 2 homozygous replicates to each rate of glyphosate applied allowing for a total of 4 replicates per treatment. These plants were compared against wildtype Petite havana tobacco. All plants were sprayed with a track sprayer set at 187 L/ha. The plants were sprayed from a range of 560-4480 g ae/ha DURANGO DMA™. All applications were formulated in water with the addition of 2% w/v ammonium sulfate (AMS). Plants were evaluated at 7 and 14 days after treatment. Plants were assigned an injury rating with respect to overall visual stunting, chlorosis, and necrosis. The T1 generation is segregating, so some variable response is expected due to difference in zygosity.
Rates of DURANGO DMA™ ranging from 420-3360 g ae/ha glyphosate were applied to 2-3 leaf tobacco as previously described.

O=C(O)CNCP(=O)(O)O [glyphosate]
Glyphosate rate that controlled non-transformed plants (Zea mays): ≥ 280 g ae/ha

B1: TraP9: chimeric chloroplast transit peptide SEQ ID NO:4; N-terminus from Brassica rapa EPSPS CTP, C-terminus from Brassica napus (protein)
chain: MAQASRICQNPCVISNLPKSNHRKSPFSVSLKTHQPRASSWGLKKSGTMLNGSVIRPVKVTASVS
modifications: TraP9 chimeric chloroplast transit peptide
notes: N-terminus from Brassica rapa EPSPS CTP, C-terminus from Brassica napus
Localization of YFP fluorescence in tobacco leaf cells [1]: accumulated within the chloroplasts | Processing (cleavage) of transit peptide from YFP by Western blot (YFP protein): processed

B2: TraP23: chloroplast transit peptide TraP23 v2, SEQ ID NO:39 (protein)
chain: MAQINKSANGVRNASLISNFSNTRQAKSPFSLSCGTRLKNSSRGLKKVAVRLIGSRVKVSAS
modifications: Chloroplast Transit Peptide
% Injury Ave [2]: 9.5%
